Consider one substance from IntAct's records for PubMed 21111240.

The target in assay [1] is straa_mouse Strada (UniProt Q3UUJ4).
In assay [2] the target is goga2_mouse Golga2 (UniProt Q921M4).
Chain of goga2_mouse Golga2 (Q921M4 whole entry): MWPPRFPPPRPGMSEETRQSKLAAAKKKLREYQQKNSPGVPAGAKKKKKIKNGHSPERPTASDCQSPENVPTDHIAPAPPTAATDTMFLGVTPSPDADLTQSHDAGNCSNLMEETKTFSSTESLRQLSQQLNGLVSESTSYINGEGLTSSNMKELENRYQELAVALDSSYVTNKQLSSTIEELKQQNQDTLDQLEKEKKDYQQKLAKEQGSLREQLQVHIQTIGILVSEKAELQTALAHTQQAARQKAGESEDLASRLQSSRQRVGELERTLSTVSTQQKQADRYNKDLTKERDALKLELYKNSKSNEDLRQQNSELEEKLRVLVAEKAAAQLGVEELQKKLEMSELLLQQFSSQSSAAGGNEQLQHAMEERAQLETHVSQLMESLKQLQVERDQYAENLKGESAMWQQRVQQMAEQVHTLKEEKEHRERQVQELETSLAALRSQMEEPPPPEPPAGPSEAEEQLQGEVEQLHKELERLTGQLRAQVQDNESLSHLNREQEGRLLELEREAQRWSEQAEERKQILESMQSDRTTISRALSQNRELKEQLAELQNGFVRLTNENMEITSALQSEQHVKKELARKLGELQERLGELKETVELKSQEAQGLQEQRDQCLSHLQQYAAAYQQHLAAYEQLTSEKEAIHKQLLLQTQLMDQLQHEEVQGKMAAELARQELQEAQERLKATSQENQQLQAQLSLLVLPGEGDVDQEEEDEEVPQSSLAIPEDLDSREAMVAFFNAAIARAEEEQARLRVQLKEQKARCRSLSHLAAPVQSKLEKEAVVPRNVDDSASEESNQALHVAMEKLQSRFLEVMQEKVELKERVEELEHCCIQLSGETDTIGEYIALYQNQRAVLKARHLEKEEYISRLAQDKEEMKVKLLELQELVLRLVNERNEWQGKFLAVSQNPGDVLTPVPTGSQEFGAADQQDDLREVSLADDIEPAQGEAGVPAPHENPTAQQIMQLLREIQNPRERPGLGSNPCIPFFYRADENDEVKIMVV

Chain of Serine/threonine-protein kinase 25 (Mus musculus), Q9Z2W1 K49R (Q9Z2W1 whole entry K49R): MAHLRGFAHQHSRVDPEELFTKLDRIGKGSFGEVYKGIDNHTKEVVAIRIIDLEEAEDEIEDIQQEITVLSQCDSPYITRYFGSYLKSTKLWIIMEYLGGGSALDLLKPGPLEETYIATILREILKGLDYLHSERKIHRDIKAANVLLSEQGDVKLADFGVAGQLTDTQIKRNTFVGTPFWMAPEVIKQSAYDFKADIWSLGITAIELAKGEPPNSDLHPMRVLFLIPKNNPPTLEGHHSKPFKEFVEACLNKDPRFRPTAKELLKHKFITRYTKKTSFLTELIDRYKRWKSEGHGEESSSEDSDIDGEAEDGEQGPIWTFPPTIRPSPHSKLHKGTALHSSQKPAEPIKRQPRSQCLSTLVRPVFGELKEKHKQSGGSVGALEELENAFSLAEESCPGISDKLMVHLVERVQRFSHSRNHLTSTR
Chain of straa_mouse Strada (Q3UUJ4 whole entry): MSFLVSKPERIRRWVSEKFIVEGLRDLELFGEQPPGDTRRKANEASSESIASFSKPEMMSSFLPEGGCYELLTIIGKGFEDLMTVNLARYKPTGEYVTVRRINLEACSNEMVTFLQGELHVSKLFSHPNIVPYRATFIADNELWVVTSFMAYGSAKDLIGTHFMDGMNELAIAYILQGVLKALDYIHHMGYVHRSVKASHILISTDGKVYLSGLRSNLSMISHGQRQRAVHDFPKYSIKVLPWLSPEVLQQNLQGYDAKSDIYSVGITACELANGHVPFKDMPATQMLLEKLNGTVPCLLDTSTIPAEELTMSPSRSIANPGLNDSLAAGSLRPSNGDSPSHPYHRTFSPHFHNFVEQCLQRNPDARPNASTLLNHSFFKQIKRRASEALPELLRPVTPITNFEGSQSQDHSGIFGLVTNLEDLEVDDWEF

As to “Serine/threonine-protein kinase 25 (Mus musculus), Q9Z2W1 K49R”, the “effect of a mutation on the interaction” value is “decreasing interaction” in assay [1] and “increasing interaction” in assay [2].
